Measured values: US20230212549A1 (3B PHARMACEUTICALS, published 2023)
Values joined by “and” are separate entries in the source; they are usually repeats but may differ in a detail not shown here. Equal values may be shown once. Numbered stars: 1 amine (or outer) side, 2 acyl side, 3 side chain; on linkers, the order of the positions; unused ones are H or OH. Bridge positions count the residues as written; N and C are the ends. Square brackets hold non-standard residues; d marks the D form. * marks the point of attachment. DOTA = O=C(O)CN1CCN(CC(=O)O)CCN(CC(=O)*)CCN(CC(=O)O)CC1; mXylylene = c1cc(C[*:1])cc(C[*:2])c1; NMeF = CN[C@@H](Cc1ccccc1)C(=O)O; Aib = CC(C)(N)C(=O)O; βAla = NCCC(=O)O

Assays:
[1] = molecular target: T1, fibroblast activation protein (FAP) on FAP-expressing human WI-38 fibroblasts (human, UniProt Q12884 1-760); assay: competitive FACS, WI-38 cells, vs Cy5 tracer m3; B = pIC50 7.1-8.0
T1 construct: also called human FAP

[2] = molecular target: Recombinant human FAP (R&D systems, #3715-SE) (human, UniProt Q12884 26-760); assay: cell-based or functional assay

B1: Ac-Met-[Cys(3MeBn)-Aib-Pro-Thr-Glu-Phe-Cys]-Asp-His-Phe-Arg-Asp-NH2 (peptide)
peptide: Ac-MC[Aib]PTEFCDHFRD-NH2
modifications: linker 2-8 via mXylylene
SMILES: CSCC[C@H](NC(C)=O)C(=O)N[C@H]1CSCc2cccc(c2)CSC[C@@H](C(=O)N[C@@H](CC(=O)O)C(=O)N[C@@H](Cc2c[nH]cn2)C(=O)N[C@@H](Cc2ccccc2)C(=O)N[C@@H](CCCNC(=N)N)C(=O)N[C@@H](CC(=O)O)C(N)=O)NC(=O)[C@H](Cc2ccccc2)NC(=O)[C@H](CCC(=O)O)NC(=O)[C@H]([C@@H](C)O)NC(=O)[C@@H]2CCCN2C(=O)C(C)(C)NC1=O
notes: also called 3BP-3204
For B1, the “pIC50 Category (FACS)” value [1] was 7.1 pIC50 and 8 pIC50 and the “pIC50 Category (Activity)” value [2] was 7.1 pIC50 and 8 pIC50.

B2: DOTA-Bal-[Cys(3MeBn)-Pro-Pro-Thr-Glu-Phe-Cys]-Asp-His-Nmf-Arg-Asp-NH2 (peptide)
peptide: {DOTA}-[βAla]CPPTEFCDH[NMeF]RD-NH2
modifications: linker 2-8 via mXylylene
SMILES: C[C@@H](O)[C@@H]1NC(=O)[C@@H]2CCCN2C(=O)[C@@H]2CCCN2C(=O)[C@@H](NC(=O)CCNC(=O)CN2CCN(CC(=O)O)CCN(CC(=O)O)CCN(CC(=O)O)CC2)CSCc2cccc(c2)CSC[C@@H](C(=O)N[C@@H](CC(=O)O)C(=O)N[C@@H](Cc2c[nH]cn2)C(=O)N(C)[C@@H](Cc2ccccc2)C(=O)N[C@@H](CCCNC(=N)N)C(=O)N[C@@H](CC(=O)O)C(N)=O)NC(=O)[C@H](Cc2ccccc2)NC(=O)[C@H](CCC(=O)O)NC1=O
notes: also called 3BP-3264
B2 was tested, and the “pIC50 Category (FACS)” value [1] was 7.1 pIC50 and 8 pIC50 and the “pIC50 Category (Activity)” value [2] was 7.1 pIC50 and 8 pIC50.

B3: Ac-Met-[cys(3MeBn)-Pro-Pro-Thr-Glu-Phe-cys]-Asp-His-Phe-Arg-Asp-NH2 (peptide)
peptide: Ac-M[dC]PPTEF[dC]DHFRD-NH2
modifications: linker 2-8 via mXylylene
SMILES: CSCC[C@H](NC(C)=O)C(=O)N[C@@H]1CSCc2cccc(c2)CSC[C@H](C(=O)N[C@@H](CC(=O)O)C(=O)N[C@@H](Cc2c[nH]cn2)C(=O)N[C@@H](Cc2ccccc2)C(=O)N[C@@H](CCCNC(=N)N)C(=O)N[C@@H](CC(=O)O)C(N)=O)NC(=O)[C@H](Cc2ccccc2)NC(=O)[C@H](CCC(=O)O)NC(=O)[C@H]([C@@H](C)O)NC(=O)[C@@H]2CCCN2C(=O)[C@@H]2CCCN2C1=O
notes: also called 3BP-3181
For B3, the “pIC50 Category (FACS)” value [1] was 7.1 pIC50 and 8 pIC50 and the “pIC50 Category (Activity)” value [2] was 7.1 pIC50 and 8 pIC50.

B4: Ac-Met-[Cys(3MeBn)-Pro-Pro-Thr-Glu-Phe-Cys]-asp-His-Phe-Arg-Asp-NH2 (peptide)
peptide: Ac-MCPPTEFC[dD]HFRD-NH2
modifications: linker 2-8 via mXylylene
SMILES: CSCC[C@H](NC(C)=O)C(=O)N[C@H]1CSCc2cccc(c2)CSC[C@@H](C(=O)N[C@H](CC(=O)O)C(=O)N[C@@H](Cc2c[nH]cn2)C(=O)N[C@@H](Cc2ccccc2)C(=O)N[C@@H](CCCNC(=N)N)C(=O)N[C@@H](CC(=O)O)C(N)=O)NC(=O)[C@H](Cc2ccccc2)NC(=O)[C@H](CCC(=O)O)NC(=O)[C@H]([C@@H](C)O)NC(=O)[C@@H]2CCCN2C(=O)[C@@H]2CCCN2C1=O
notes: also called 3BP-3183
In the case of B4, the “pIC50 Category (FACS)” value [1] is reported as 7.1 pIC50 and 8 pIC50 and the “pIC50 Category (Activity)” value [2] is reported as 7.1 pIC50 and 8 pIC50.

B5: Ac-Met-[Cys(3MeBn)-Pro-Pro-Thr-Glu-Phe-cys]-Asp-His-Phe-Arg-Asp-NH2 (peptide)
peptide: Ac-MCPPTEF[dC]DHFRD-NH2
modifications: linker 2-8 via mXylylene
SMILES: CSCC[C@H](NC(C)=O)C(=O)N[C@H]1CSCc2cccc(c2)CSC[C@H](C(=O)N[C@@H](CC(=O)O)C(=O)N[C@@H](Cc2c[nH]cn2)C(=O)N[C@@H](Cc2ccccc2)C(=O)N[C@@H](CCCNC(=N)N)C(=O)N[C@@H](CC(=O)O)C(N)=O)NC(=O)[C@H](Cc2ccccc2)NC(=O)[C@H](CCC(=O)O)NC(=O)[C@H]([C@@H](C)O)NC(=O)[C@@H]2CCCN2C(=O)[C@@H]2CCCN2C1=O
notes: also called 3BP-3182
In the case of B5, the “pIC50 Category (FACS)” value [1] is reported as 7.1 pIC50 and 8 pIC50 and the “pIC50 Category (Activity)” value [2] is reported as 7.1 pIC50 and 8 pIC50.

B6: Ac-Met-[Cys(3MeBn)-Pro-Pro-Thr-glu-Phe-Cys]-Asp-His-Phe-Arg-Asp-NH2 (peptide)
peptide: Ac-MCPPT[dE]FCDHFRD-NH2
modifications: linker 2-8 via mXylylene
SMILES: CSCC[C@H](NC(C)=O)C(=O)N[C@H]1CSCc2cccc(c2)CSC[C@@H](C(=O)N[C@@H](CC(=O)O)C(=O)N[C@@H](Cc2c[nH]cn2)C(=O)N[C@@H](Cc2ccccc2)C(=O)N[C@@H](CCCNC(=N)N)C(=O)N[C@@H](CC(=O)O)C(N)=O)NC(=O)[C@H](Cc2ccccc2)NC(=O)[C@@H](CCC(=O)O)NC(=O)[C@H]([C@@H](C)O)NC(=O)[C@@H]2CCCN2C(=O)[C@@H]2CCCN2C1=O
notes: also called 3BP-3179
B6 was tested, and the “pIC50 Category (FACS)” value [1] was 7.1 pIC50 and 8 pIC50 and the “pIC50 Category (Activity)” value [2] was 6.1 pIC50 and 7 pIC50.
